37 molecules from PMC4072508, “Genome-Wide Prediction and Validation of Peptides That Bind Human Prosurvival Bcl-2 Proteins” (PLoS Computational Biology, 2014) can be followed below.

The assay has as its target Bcl-xL, Q07817. Nature of the assay: peptide SPOT array, c-Myc-tagged receptor at 1 uM or 100 nM, anti-c-Myc-Cy3.

Chain of Bcl-xL, Q07817 (Q07817 1-209): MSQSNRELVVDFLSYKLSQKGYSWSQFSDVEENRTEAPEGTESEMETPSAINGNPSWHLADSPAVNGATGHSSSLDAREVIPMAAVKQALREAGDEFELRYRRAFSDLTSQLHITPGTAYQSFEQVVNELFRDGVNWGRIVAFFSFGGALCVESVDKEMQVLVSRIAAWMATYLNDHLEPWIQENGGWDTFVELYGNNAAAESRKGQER

Take GRQVEDAGRVLEGISKSISYDLDGEE [FIBIN]: the SPOT signal as a fraction of Bim BH3's signal on the same receptor and array amounted to 0.02. The figure for KNGHREVIRQLLRAGIEINRQTKTGT [CASKIN2] is 0.23; for DISLSNSGFKDVNFGCDYHQYRDKFS [PION] it is 0.03. The molecule TEEMKHNVEKLNELSKNLNRAFAEFE [DNAH3] displayed an SPOT signal as a fraction of Bim BH3's signal on the same receptor and array of 0.02. With ENGHTDVADVLLQAGADLEHESEGGR [ANKRD17], the SPOT signal as a fraction of Bim BH3's signal on the same receptor and array turned out to be 0.02. NEEGQQFALKLHRLGRTSFRNLKNKR: the SPOT signal as a fraction of Bim BH3's signal on the same receptor and array was determined as 0.95. RGRTRGWVQTLARMSRRTRGPVERAA [C6orf223] registered an SPOT signal as a fraction of Bim BH3's signal on the same receptor and array of 0.75. As to EGTKIVLGKQDIESADEVRRKSLVLK [TAF1], the SPOT signal as a fraction of Bim BH3's signal on the same receptor and array stood at 0.05.

With AIKPVSFIRDDKKIARHFRFGNQEDA [USP36], the SPOT signal as a fraction of Bim BH3's signal on the same receptor and array is 1.34.

IKKSVTKGEMLKIVLKRFREHFPEIL [MAGEB2] showed an SPOT signal as a fraction of Bim BH3's signal on the same receptor and array of 0.2. With TNISWRACDHLRCILCDFLVVSYDDY [C8orf37] the figure was 0.03; with AHKARALARLLRQTLLAAFSDFKRLQ [FAM43B], 0.59. With WRERPDVGRYLRELSGSGLERLRREP [COG8] the figure was 0.09; with DNHKKKTVKMLEYLLKDVLHGVFNYL [CASP5], 0.24; with QGDVQMAVSVLIVLGERVRKDIDEQT [WDR24], 0.02. With FDNAMLRARRLYQLAYDTYQEFEEAY [GH2] the figure was 0.04; with VFERCELARTLKRLLMDGYRGISLAN [LYZ], 0.42; with EVRSSQFARKLWRSSRRISQVSSGET [NBEAL2], 0.86. With VYILRKAARRDAQVSRAAGVRVGLLS [CACNA1G], the SPOT signal as a fraction of Bim BH3's signal on the same receptor and array turned out to be 0.94. The molecule TGGLPELASRLTRISAVLLEGMNKET [TCP11L2] gave an SPOT signal as a fraction of Bim BH3's signal on the same receptor and array of 0.03. The figure for SQDVERFCRQLSSMASKLIISPFTLV [ABCD4] is 0.05. With SRELEEISERLEEAGGATSVQIEMNK [MYH6] the figure was 0.02.

The molecule RQKIQRTARKLFGLSVRCRHNPNHQL [DBC1] returned an SPOT signal as a fraction of Bim BH3's signal on the same receptor and array of 0.69.

YEQAKNISQDLEKQAARVHEEAKRAG [LAMC1] registered an SPOT signal as a fraction of Bim BH3's signal on the same receptor and array of 0.03. The molecule GENIRQAASSLQQASLKLFEMAYKKM [HSPA9] displayed an SPOT signal as a fraction of Bim BH3's signal on the same receptor and array of 0.09. The figure for SCMATVIHNPLKALLDQFYKEAIEHC [DPF3] is 0.03. With LASIGGLAARLQLWAFKLDYDSMERE [FHOD1] the figure was 0.03; with EEIIHKLAMQLRHILDNIDHRMVRED [PXT1], 0.02. The figure for GEGAEEAAKDLADIAAFFRSGFRKND [TRIO] is 0.03. In turn, SSLSDGLPVHDANIADELTQKKKMFK [AGBL2] returned an SPOT signal as a fraction of Bim BH3's signal on the same receptor and array of 0.03.

For the molecule ATKRETAATFDKKVAKEFGFQNNGFS [NPLOC4], the SPOT signal as a fraction of Bim BH3's signal on the same receptor and array was found to be 0.24.

GAQHSTMTSTLRRLLEDIFKGVVTKG [CCDC138] had an SPOT signal as a fraction of Bim BH3's signal on the same receptor and array of 0.19. The figure for LDDVKILANGLLQLGHGLKDFVHKTK [ANGPTL3] is 0.04; for NEEGQQFALKLHRLLRTSFRNLKNKR it is 0.69; for RYPILENPEILRKTLDDFLNRIALTD [CCNH] it is 0.02.

For PFDCRDYAVVLRKYLDKIYNISMKHP [FOLH1B], the SPOT signal as a fraction of Bim BH3's signal on the same receptor and array worked out at 0.51.

DIFMNNVIVRLSQISEDVIRLFKKSK [SRGAP3]: the SPOT signal as a fraction of Bim BH3's signal on the same receptor and array was 0.18.
